The record followed here is patent publication US20220160760A1.

For this assay, the target named is carcinoembryonic antigen (CEA) (UniProt P06731). Briefly: cell-based or functional assay.
UniProt P06731, sequence (P06731 35-702 limits assumed): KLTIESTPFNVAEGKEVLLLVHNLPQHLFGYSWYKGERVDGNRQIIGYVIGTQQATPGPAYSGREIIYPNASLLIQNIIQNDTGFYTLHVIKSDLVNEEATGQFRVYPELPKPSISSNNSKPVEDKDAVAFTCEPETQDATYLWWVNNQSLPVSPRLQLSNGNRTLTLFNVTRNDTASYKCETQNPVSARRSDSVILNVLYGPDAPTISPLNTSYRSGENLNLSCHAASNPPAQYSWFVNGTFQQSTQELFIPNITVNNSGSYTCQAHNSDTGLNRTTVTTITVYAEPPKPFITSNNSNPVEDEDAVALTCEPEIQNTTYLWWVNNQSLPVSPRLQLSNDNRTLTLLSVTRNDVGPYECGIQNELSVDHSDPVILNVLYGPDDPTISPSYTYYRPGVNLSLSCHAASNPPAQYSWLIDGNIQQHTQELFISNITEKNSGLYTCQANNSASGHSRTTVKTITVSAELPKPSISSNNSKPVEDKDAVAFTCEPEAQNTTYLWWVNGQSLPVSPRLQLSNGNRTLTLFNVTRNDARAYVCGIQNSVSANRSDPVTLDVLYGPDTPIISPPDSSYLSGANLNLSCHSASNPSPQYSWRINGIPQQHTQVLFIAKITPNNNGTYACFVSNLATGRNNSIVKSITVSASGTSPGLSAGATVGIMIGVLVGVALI

With “MFE23 CoStAR (MFE23.scFv fused to full length human CD28) (receptor)”, the IL-2 secretion by ELISA, T-cells mixed with LoVo-OKT3 cells, average of three donors (non-transduced cells 0.80 ng/ml) is 5 ng/mL.
